This note sets out measurements from the RNAGym collection of RNA variant scans (doi:10.1101/gr.219683.116).

B1: mRNA-splicing (parent)
chain: AGUUGCUGCUGGGAGCUCCAGCACAGUGAAAUGGACAGAAGGGCAGAGCAA

The data set covers variants of B1. The experiment in a line: exon inclusion enrichment index; higher = more inclusion; WT1 exon 5 minigene, HEK293.
With AGUUCUUCUCGGGAGCUACAGCACAGUGAAAUGGACAGAAGGGCAGAGCAA [G5C C6U G8C C9U U10C C18A], the “exon inclusion enrichment index” value came out at 1.39.

For the variant AGUUCUUCUCGGGAGCUGCAGCACAGUGAAAUGGACAGAAGGGCAGAGCAA [G5C C6U G8C C9U U10C C18G], the “exon inclusion enrichment index” value was 2.21.

On to AGUUCUUCUCGGGAGCUUCAGCACAGUGAAAUGGACAGAAGGGCAGAGCAA [G5C C6U G8C C9U U10C C18U], for which the “exon inclusion enrichment index” value was found to be 1.62.

AGUUCUUCUCGGGAGCUCCAGCACAGUGAAAUGGACAGAAGGGCGUAGCAA [G5C C6U G8C C9U U10C A45G G46U]: the “exon inclusion enrichment index” value stood at 1.68. With AGUUCUUCUCGGGAGCUCCAGCACAGUGAAAUGGACAGAAGGGCGAAGCAA [G5C C6U G8C C9U U10C A45G G46A], the “exon inclusion enrichment index” value was found to be 3.98. Regarding AGUUCUUCUCGGGAGCUCCAGCACAGUGAAAUGGACAGAAGGGCGCAGCAA [G5C C6U G8C C9U U10C A45G G46C], the “exon inclusion enrichment index” value was found to be 2.3. As for AGUUCUUCUCGGGAGCUGAAGCACAGUGAAAUGGACAGAAGGGCAGAGCAA [G5C C6U G8C C9U U10C C18G C19A], the “exon inclusion enrichment index” value is 2.82. As for AGUUCUUCUCGGGAGCUGGAGCACAGUGAAAUGGACAGAAGGGCAGAGCAA [G5C C6U G8C C9U U10C C18G C19G], the figure is 2.78; as for AGUUCUUCUCGGGAGCUGUAGCACAGUGAAAUGGACAGAAGGGCAGAGCAA [G5C C6U G8C C9U U10C C18G C19U], 0.674.

Take AGUUCUUCUCGGGAGCUUAAGCACAGUGAAAUGGACAGAAGGGCAGAGCAA [G5C C6U G8C C9U U10C C18U C19A]: the “exon inclusion enrichment index” value was 0.179.

As to AGUUCUUCUCGGGAGCUUGAGCACAGUGAAAUGGACAGAAGGGCAGAGCAA [G5C C6U G8C C9U U10C C18U C19G], the “exon inclusion enrichment index” value turned out to be 0.675. Consider AGUUCUUCUCGGGAGCUCCAGCACAGUGAAAUGGACAGAUGGGCAGAGCAA [G5C C6U G8C C9U U10C A40U], for which the “exon inclusion enrichment index” value is 1.67. As for AGUUCUUCUCGGGAGAGCCAGCACAGUGAAAUGGACAGAAGGGCAGAGCAA [G5C C6U G8C C9U U10C C16A U17G], the “exon inclusion enrichment index” value stood at 1.15.

As for AGUUCUUCUCGGGAGACCCAGCACAGUGAAAUGGACAGAAGGGCAGAGCAA [G5C C6U G8C C9U U10C C16A U17C], the “exon inclusion enrichment index” value is 1.6.

As to AGUUCUUCUCGGGAGAACCAGCACAGUGAAAUGGACAGAAGGGCAGAGCAA [G5C C6U G8C C9U U10C C16A U17A], the “exon inclusion enrichment index” value was determined as 1.38. The figure for AGUUCUUCUCGGGAGUCCCAGCACAGUGAAAUGGACAGAAGGGCAGAGCAA [G5C C6U G8C C9U U10C C16U U17C] is 1.08; for AGUUCUUCUCGGGAGUGCCAGCACAGUGAAAUGGACAGAAGGGCAGAGCAA [G5C C6U G8C C9U U10C C16U U17G] it is 0.905; for AGUUCUUCUCGGGAGUACCAGCACAGUGAAAUGGACAGAAGGGCAGAGCAA [G5C C6U G8C C9U U10C C16U U17A] it is 1.65.

Consider AGUUCUUCUCGGGAGCUCCAGCACAGUGAAAUGGACAGAAGGGCAGCACAA [G5C C6U G8C C9U U10C A47C G48A], for which the “exon inclusion enrichment index” value amounted to 1.12. The figure for AGUUCUUCUCGGGAGCUCCAGCACAGUGAAAUGGACAGAAGGGCAGCCCAA [G5C C6U G8C C9U U10C A47C G48C] is 1.78; for AGUUCUUCUCGGGAGCUCCAGCACAGUGAAAUGGACAGAAGGGCAGCUCAA [G5C C6U G8C C9U U10C A47C G48U] it is 1.77; for AGUUCUUCUCGGGAGCUCCAGCACAGUGAAAUGGACAGAAGGGCAGGUCAA [G5C C6U G8C C9U U10C A47G G48U] it is 0.205. For the variant AGUUCUUCUCGGGAGCUCCAGCACAGUGAAAUGGACAGAAGGGCAGGCCAA [G5C C6U G8C C9U U10C A47G G48C], the “exon inclusion enrichment index” value came out at 0.706.

As for AGUUCUUCUCGGGAGCUCCAGCACAGUGAAAUGGACAGAAGGGCAGGACAA [G5C C6U G8C C9U U10C A47G G48A], the “exon inclusion enrichment index” value was found to be 1.24. On to AGUUCUUCUCGGGAGCUCCAGCACAGUGAAAUGGACAGAAGGGCAGUUCAA [G5C C6U G8C C9U U10C A47U G48U], for which the “exon inclusion enrichment index” value was determined as 1.45.

AGUUCUUCUCGGGAGCUCCAGCACAGUGAAAUGGACAGAAGGGCAGUCCAA [G5C C6U G8C C9U U10C A47U G48C]: the “exon inclusion enrichment index” value stood at 1.37. As for AGUUCUUCUCGGGAGCUCCAGCACAGUGAAAUGGACAGAAGGGCAGUACAA [G5C C6U G8C C9U U10C A47U G48A], the figure is 1.58; as for AGUUCUUCUCGGGAGCUCCAGCACAGUGAAAUGGACAGAAGGGCUCAGCAA [G5C C6U G8C C9U U10C A45U G46C], 1.3; as for AGUUCUUCUCGGGAGCUCCAGCACAGUGAAAUGGACAGAAGGGCUAAGCAA [G5C C6U G8C C9U U10C A45U G46A], 1.39. As to AGUUCUUCUCGGGAGCUCCAGCACAGUGAAAUGGACAGAAGGGCUUAGCAA [G5C C6U G8C C9U U10C A45U G46U], the “exon inclusion enrichment index” value came out at 0.648. As to AGUUCUUCUCGGGAGCUAAAGCACAGUGAAAUGGACAGAAGGGCAGAGCAA [G5C C6U G8C C9U U10C C18A C19A], the “exon inclusion enrichment index” value turned out to be 0.438. Take AGUUCUUCUCGGGAGCUAGAGCACAGUGAAAUGGACAGAAGGGCAGAGCAA [G5C C6U G8C C9U U10C C18A C19G]: the “exon inclusion enrichment index” value was 0.289. Regarding AGUUCUUCUCGGGAGCUAUAGCACAGUGAAAUGGACAGAAGGGCAGAGCAA [G5C C6U G8C C9U U10C C18A C19U], the “exon inclusion enrichment index” value turned out to be 0.0905.

Consider AGUUCUUCUCGGGAGCUCCAGCACAGUGAAAUGGACAGAAGGGCCGAGCAA [G5C C6U G8C C9U U10C A45C], for which the “exon inclusion enrichment index” value amounted to 2.06. The figure for AGUUCUUCUCGGGAGCUCCAGCACAGUGAAAUGGACAGAAGGGCUGAGCAA [G5C C6U G8C C9U U10C A45U] is 2.45; for AGUUCUUCUCGGGAGCUCCAGCACAGUGAAAUGGACAGAAGGGCGGAGCAA [G5C C6U G8C C9U U10C A45G] it is 3.56.

AGUUCUUCUCGGGAGGUCCAGCACAGUGAAAUGGACAGAAGGGCAGAGCAA [G5C C6U G8C C9U U10C C16G]: the “exon inclusion enrichment index” value is 1.02. The figure for AGUUCUUCUCGGGAGAUCCAGCACAGUGAAAUGGACAGAAGGGCAGAGCAA [G5C C6U G8C C9U U10C C16A] is 2.53; for AGUUCUUCUCGGGAGUUCCAGCACAGUGAAAUGGACAGAAGGGCAGAGCAA [G5C C6U G8C C9U U10C C16U] it is 2.36. As for AGUUCUUCUCGGGAGCUCCAGCACAGUGAAAUGGACAGAAGGGCCCAGCAA [G5C C6U G8C C9U U10C A45C G46C], the figure is 1.22; as for AGUUCUUCUCGGGAGCUCCAGCACAGUGAAAUGGACAGAAGGGCCAAGCAA [G5C C6U G8C C9U U10C A45C G46A], 1.12. As to AGUUCUUCUCGGGAGCUCCAGCACAGUGAAAUGGACAGAAGGGCCUAGCAA [G5C C6U G8C C9U U10C A45C G46U], the “exon inclusion enrichment index” value was determined as 0.726. The figure for AGUUCUUCUCGGGAGCUCCAGCACAGUGAAAUGGACAGAUUGGCAGAGCAA [G5C C6U G8C C9U U10C A40U G41U] is 0.94; for AGUUCUUCUCGGGAGCUCCAGCACAGUGAAAUGGACAGAUCGGCAGAGCAA [G5C C6U G8C C9U U10C A40U G41C] it is 2.71; for AGUUCUUCUCGGGAGCUCCAGCACAGUGAAAUGGACAGAUAGGCAGAGCAA [G5C C6U G8C C9U U10C A40U G41A] it is 0.0602. The figure for AGUUCUUCUCGGGAGCUCCAGCACAGUGAAAUGGACAGAAGGGCAGGGCAA [G5C C6U G8C C9U U10C A47G] is 0.327; for AGUUCUUCUCGGGAGCUCCAGCACAGUGAAAUGGACAGAAGGGCAGUGCAA [G5C C6U G8C C9U U10C A47U] it is 1.87; for AGUUCUUCUCGGGAGCUCCAGCACAGUGAAAUGGACAGAAGGGCAGCGCAA [G5C C6U G8C C9U U10C A47C] it is 2.38. Take AGUUCUUCUCGGGAGGACCAGCACAGUGAAAUGGACAGAAGGGCAGAGCAA [G5C C6U G8C C9U U10C C16G U17A]: the “exon inclusion enrichment index” value stood at 2.4.

AGUUCUUCUCGGGAGGCCCAGCACAGUGAAAUGGACAGAAGGGCAGAGCAA [G5C C6U G8C C9U U10C C16G U17C]: the “exon inclusion enrichment index” value stood at 1.12. With AGUUCUUCUCGGGAGGGCCAGCACAGUGAAAUGGACAGAAGGGCAGAGCAA [G5C C6U G8C C9U U10C C16G U17G], the “exon inclusion enrichment index” value came out at 0.254.
